As usually defined, the IC50 is the concentration needed to halve the response being measured. Read a high IC50 as weaker potency.

What all share (experiment): cell-based or functional assay
Test [1] concerns the target HIV-1 Env of pseudovirus isolate MGRM-G-025 (HIV-1).
For test [2], the target named is HIV-1 Env of isolate VLGCA1 (subtype A) (HIV-1).
Test [3] concerns the target HIV-1 envelope glycoprotein (Env) of isolate MGRM-C-017 (HIV-1).
Test [4] concerns the target HIV-1 Env of isolate 93MW959 (subtype C) (HIV-1).
Test [5] deals with HIV-1 Env of isolate MGRM-AE-003 (subtype AE) (HIV-1).
Test [6] addresses HIV-1 envelope glycoprotein (Env) of isolate MGRM-C-008 (HIV-1).
Test [7] has as its target HIV-1 Env of isolate MGRM-AE-005 (subtype AE) (HIV-1).
The target of test [8] is HIV-1 Env of isolate MGRM-A-010 (subtype A) (HIV-1).
In test [9] the target is HIV-1 Env of isolate 92UG114 (HIV-1).
Test [10] addresses HIV-1 envelope glycoprotein (Env) of isolate MGRM-C-023 (HIV-1).
Test [11] concerns the target HIV-1 Env of isolate 92UG046 (HIV-1).
Test [12] has as its target HIV-1 Env of isolate JR-CSF (pseudovirus) (HIV-1) (UniProt P20871).
Test [13] deals with HIV-1 Env of isolate MG RM-D-002 (HIV-1).
Test [14] deals with HIV-1 Env of isolate THR0.18 (subtype B) (HIV-1).
Test [15] addresses HIV-1 envelope glycoprotein (Env) of isolate MGRM-C-027 (HIV-1).
Test [16] addresses HIV-1 Env of isolate 92UG031 (HIV-1).
Test [17] deals with HIV-1 Env of isolate 92UG005 (clade D), on pseudovirus (HIV-1).
Test [18] addresses HIV-1 Env of isolate 92UG024 (clade D), on pseudovirus (HIV-1).
Test [19] deals with HIV-1 APV13 Env (pseudovirus, clade B) (HIV-1).

Chain of 5345_I01 (PGT-137) (antibody) (VH): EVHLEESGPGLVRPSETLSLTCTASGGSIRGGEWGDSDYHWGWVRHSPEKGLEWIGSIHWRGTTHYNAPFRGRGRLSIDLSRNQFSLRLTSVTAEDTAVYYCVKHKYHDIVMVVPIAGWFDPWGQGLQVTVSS
Chain of 5345_I01 (PGT-137) (antibody) (VL): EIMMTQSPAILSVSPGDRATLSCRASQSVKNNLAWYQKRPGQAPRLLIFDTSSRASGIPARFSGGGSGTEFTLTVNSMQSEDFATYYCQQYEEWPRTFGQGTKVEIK
Chain of 5329_C19 (PGT-136) (antibody) (VH): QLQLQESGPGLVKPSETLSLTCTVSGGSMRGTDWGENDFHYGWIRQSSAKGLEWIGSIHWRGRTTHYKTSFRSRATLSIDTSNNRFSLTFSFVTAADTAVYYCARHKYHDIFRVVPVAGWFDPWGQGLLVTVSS
Chain of 5329_C19 (PGT-136) (antibody) (VL): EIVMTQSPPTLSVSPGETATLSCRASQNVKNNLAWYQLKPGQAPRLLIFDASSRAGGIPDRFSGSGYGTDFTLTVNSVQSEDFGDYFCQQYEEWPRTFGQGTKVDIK

Regarding 5114_A19 (PGT-128) (antibody), the IC50 (µg/mL), pseudovirus neutralization in test [1] was found to be 0.017 µg/mL; in test [2] it was 0.838 µg/mL; in [3] it was 1.06 µg/mL; in [5], 0.18 µg/mL; in test [6], 0.373 µg/mL; in test [7], 0.032 µg/mL. Also, the IC50 (µg/mL), pseudovirus neutralization was 0.005 µg/mL in test [8]; 0.083 µg/mL in test [9]; 0.026 µg/mL in [10]; > 50 µg/mL in test [11]; 0.011 µg/mL in [13]; 0.081 µg/mL in test [15]. Besides, the IC50 neutralization is 0.045 µg/mL in [4] and > 50 µg/mL in [14]. For the same substance, the Polyclonal Transfectant Neutralization Index in test [12] amounted to 136. This substance displayed a Primary Neutralization Index (B cell culture supernatant) in test [12] of 77.5. The IC50 in test [16] is > 50 µg/mL.

Take 5136_H01 (PGT-131) (antibody): the IC50 (µg/mL), pseudovirus neutralization was 7.75 µg/mL in test [1]; > 50 µg/mL in test [2]; > 50 µg/mL in [3]; 1.41 µg/mL in test [5]; > 50 µg/mL in test [6]; 0.017 µg/mL in [7]. Further, the IC50 (µg/mL), pseudovirus neutralization in test [8] is 0.01 µg/mL; in test [9], > 50 µg/mL; in [10], 0.143 µg/mL; in test [11], > 50 µg/mL; in [13] it was 11.2 µg/mL; in test [15], 0.065 µg/mL. For the same substance, the IC50 neutralization in test [4] and in test [14] was > 50 µg/mL each time. This substance yielded a Primary Neutralization Index (B cell culture supernatant) in test [12] of 6.2. For the same substance, the IC50 in test [16] is > 50 µg/mL.

For the substance 5147_N06 (PGT-130) (antibody), the IC50, pseudovirus neutralization in test [17] was 0.474 µg/mL; in test [18], > 10 µg/mL. In addition, the IC50 (µg/mL), pseudovirus neutralization in [1] was 8.45 µg/mL; in [2], > 50 µg/mL; in test [3], > 50 µg/mL; in [5] it was 0.337 µg/mL; in [6] it was 7.28 µg/mL; in test [7], 0.006 µg/mL. For the same substance, the IC50 (µg/mL), pseudovirus neutralization was 0.005 µg/mL in test [8]; > 50 µg/mL in test [9]; 0.151 µg/mL in test [10]; > 50 µg/mL in test [11]; 0.869 µg/mL in test [13]; 0.008 µg/mL in test [15]. Further, the values for the IC50 neutralization in [4], in [19] and in test [14] were 8.55 µg/mL, 0.0345 µg/mL and > 50 µg/mL, respectively. The substance further displayed a Polyclonal Transfectant Neutralization Index in test [12] of 1.24. In addition, the Primary Neutralization Index (B cell culture supernatant) in [12] was 19.3. Further, the IC50 in [16] was > 50 µg/mL.

Regarding 5329_C19 (PGT-136) (antibody), the IC50, pseudovirus neutralization in [17] is > 10 µg/mL; in [18], 0.0915 µg/mL. Also, the IC50 (µg/mL), pseudovirus neutralization in [1], in test [2], in [3], in test [5], in [6] and in test [7] was > 50 µg/mL throughout. In addition, the IC50 (µg/mL), pseudovirus neutralization in [8] was > 50 µg/mL; in [9], > 50 µg/mL; in test [10], 3.2 µg/mL; in test [11], > 50 µg/mL; in test [13] it was > 50 µg/mL; in test [15] it was > 50 µg/mL. Further, the IC50 neutralization in test [4] was > 50 µg/mL; in test [19], > 10 µg/mL; in test [14], > 50 µg/mL. This substance displayed a Primary Neutralization Index (B cell culture supernatant) in test [12] of 0.9. In addition, the IC50 in [16] is > 50 µg/mL.

As to 5343_B08 (PGT-135) (antibody), the IC50, pseudovirus neutralization is > 10 µg/mL in test [17] and 0.0139 µg/mL in test [18]. Also, the IC50 (µg/mL), pseudovirus neutralization in test [1] is 0.592 µg/mL; in test [2] it was > 50 µg/mL; in [3], > 50 µg/mL; in test [5], > 50 µg/mL; in test [6], > 50 µg/mL; in [7], > 50 µg/mL. Moreover, the IC50 (µg/mL), pseudovirus neutralization in test [8] is > 50 µg/mL; in test [9], 1.29 µg/mL; in [10] it was 0.061 µg/mL; in test [11] it was > 50 µg/mL; in [13], > 50 µg/mL; in test [15], > 50 µg/mL. For the same substance, the results for the IC50 neutralization in test [4], in [19] and in [14] were > 50 µg/mL, 0.545 µg/mL and > 50 µg/mL, respectively. The same substance registered a Primary Neutralization Index (B cell culture supernatant) in [12] of 1.8. Further, the IC50 in test [16] was > 50 µg/mL.

Regarding 5345_I01 (PGT-137) (antibody), the IC50 (µg/mL), pseudovirus neutralization in test [1], in [2], in test [3], in [5], in test [6] and in test [7] was > 50 µg/mL throughout. Further, the IC50 (µg/mL), pseudovirus neutralization is > 50 µg/mL in [8]; > 50 µg/mL in test [9]; 0.23 µg/mL in test [10]; > 50 µg/mL in test [11]; > 50 µg/mL in [13]; > 50 µg/mL in test [15]. For the same substance, the IC50 neutralization in test [4] and in [14] was > 50 µg/mL each time. In [12], this substance yielded a Primary Neutralization Index (B cell culture supernatant) of 1.1. In addition, the concentration for half-maximal inhibition (IC50) in [16] is > 50 µg/mL.

The values are drawn from patent US20250320281A1.
